Assay results published in article PMC9638894, “Anti-CRISPR proteins function through thermodynamic tuning and allosteric regulation of CRISPR RNA-guided surveillance complex” (Nucleic Acids Research, 2022).

Biological target: T1, type IF CRISPR RNA guided surveillance complex (Csy) (UniProt Q02MM2 1-187)
T1 construct: Cas8f subunit (tail) of the type IF Csy complex; Csy1); Cas5 subunit (tail) of the type IF Csy complex; Csy2); Cas7 subunit (backbone, six copies Cas7.1f-Cas7.6f) of the type IF Csy complex; Csy3); Cas6f subunit (head) of the type IF Csy complex; Csy4); Ribonucleoprotein: also holds one crRNA (synthetic CRISPR, Addgene 89244); Purified on Ni-NTA, so one subunit carries a His tag; also called Csy …
Assay: ITC; AcrIF9 or AcrIF2 binding to the Csy complex; conditions not told in the text shown (Supplemental Figure S8)
Details: both partners purified

B1: AcrIF9 (natural protein)
chain: MKAAYIIKEVQNINSEREGTQIEATSLSQAKRIASKEQCFHGTVMRIETVNGLWLAYKEDGKRWVDCQ
dH: > 0
